{"source": "paper PMC12305709", "about": "“Functional investigation of the RNA helicase MOV10 with respect to its interplay with factors involved in nonsense-mediated mRNA decay” (The Journal of Biological Chemistry, 2025)", "molecules": {"B1": {"name": "UPF2 (near full-length variant, residues 121-1227) (domain or fragment, human, UniProt Q9HAU5 121-1227, looked up)", "chain": "MKEKEESIQLHQEAWERHHLRKELRSKNQNAPDSRPEENFFSRLDSSLKKNTAFVKKLKTITEQQRDSLSHDFNGLNLSKYIAEAVASIVEAKLKISDVNCAVHLCSLFHQRYADFAPSLLQVWKKHFEARKEEKTPNITKLRTDLRFIAELTIVGIFTDKEGLSLIYEQLKNIINADRESHTHVSVVISFCRHCGDDIAGLVPRKVKSAAEKFNLSFPPSEIISPEKQQPFQNLLKEYFTSLTKHLKRDHRELQNTERQNRRILHSKGELSEDRHKQYEEFAMSYQKLLANSQSLADLLDENMPDLPQDKPTPEEHGPGIDIFTPGKPGEYDLEGGIWEDEDARNFYENLIDLKAFVPAILFKDNEKSCQNKESNKDDTKEAKESKENKEVSSPDDLELELENLEINDDTLELEGGDEAEDLTKKLLDEQEQEDEEASTGSHLKLIVDAFLQQLPNCVNRDLIDKAAMDFCMNMNTKANRKKLVRALFIVPRQRLDLLPFYARLVATLHPCMSDVAEDLCSMLRGDFRFHVRKKDQINIETKNKTVRFIGELTKFKMFTKNDTLHCLKMLLSDFSHHHIEMACTLLETCGRFLFRSPESHLRTSVLLEQMMRKKQAMHLDARYVTMVENAYYYCNPPPAEKTVKKKRPPLQEYVRKLLYKDLSKVTTEKVLRQMRKLPWQDQEVKDYVICCMINIWNVKYNSIHCVANLLAGLVLYQEDVGIHVVDGVLEDIRLGMEVNQPKFNQRRISSAKFLGELYNYRMVESAVIFRTLYSFTSFGVNPDGSPSSLDPPEHLFRIRLVCTILDTCGQYFDRGSSKRKLDCFLVYFQRYVWWKKSLEVWTKDHPFPIDIDYMISDTLELLRPKIKLCNSLEESIRQVQDLEREFLIKLGLVNDKDSKDSMTEGENLEEDEEEEEGGAETEEQSGNESEVNEPEEEEGSDNDDDEGEEEEEENTDYLTDSNKENETDEENTEVMIKGGGLKHVPCVEDEDFIQALDKMMLENLQQRSGESVKVHQLDVAIPLHLKSQLRKGPPLGGGEGEAESADTMPFVMLTRKGNKQQFKILNVPMSSQLAANHWNQQQAEQEERMRMKKLTLDINERQEQED", "notes": "UPF2, human, residues 121-1227; also called near full-length UPF2"}}, "key": {"[1]": {"target": "GST-MOV10NTD-UPF1hel (human) (UniProt Q92900)", "sequence (Q92900 whole entry, looked up)": "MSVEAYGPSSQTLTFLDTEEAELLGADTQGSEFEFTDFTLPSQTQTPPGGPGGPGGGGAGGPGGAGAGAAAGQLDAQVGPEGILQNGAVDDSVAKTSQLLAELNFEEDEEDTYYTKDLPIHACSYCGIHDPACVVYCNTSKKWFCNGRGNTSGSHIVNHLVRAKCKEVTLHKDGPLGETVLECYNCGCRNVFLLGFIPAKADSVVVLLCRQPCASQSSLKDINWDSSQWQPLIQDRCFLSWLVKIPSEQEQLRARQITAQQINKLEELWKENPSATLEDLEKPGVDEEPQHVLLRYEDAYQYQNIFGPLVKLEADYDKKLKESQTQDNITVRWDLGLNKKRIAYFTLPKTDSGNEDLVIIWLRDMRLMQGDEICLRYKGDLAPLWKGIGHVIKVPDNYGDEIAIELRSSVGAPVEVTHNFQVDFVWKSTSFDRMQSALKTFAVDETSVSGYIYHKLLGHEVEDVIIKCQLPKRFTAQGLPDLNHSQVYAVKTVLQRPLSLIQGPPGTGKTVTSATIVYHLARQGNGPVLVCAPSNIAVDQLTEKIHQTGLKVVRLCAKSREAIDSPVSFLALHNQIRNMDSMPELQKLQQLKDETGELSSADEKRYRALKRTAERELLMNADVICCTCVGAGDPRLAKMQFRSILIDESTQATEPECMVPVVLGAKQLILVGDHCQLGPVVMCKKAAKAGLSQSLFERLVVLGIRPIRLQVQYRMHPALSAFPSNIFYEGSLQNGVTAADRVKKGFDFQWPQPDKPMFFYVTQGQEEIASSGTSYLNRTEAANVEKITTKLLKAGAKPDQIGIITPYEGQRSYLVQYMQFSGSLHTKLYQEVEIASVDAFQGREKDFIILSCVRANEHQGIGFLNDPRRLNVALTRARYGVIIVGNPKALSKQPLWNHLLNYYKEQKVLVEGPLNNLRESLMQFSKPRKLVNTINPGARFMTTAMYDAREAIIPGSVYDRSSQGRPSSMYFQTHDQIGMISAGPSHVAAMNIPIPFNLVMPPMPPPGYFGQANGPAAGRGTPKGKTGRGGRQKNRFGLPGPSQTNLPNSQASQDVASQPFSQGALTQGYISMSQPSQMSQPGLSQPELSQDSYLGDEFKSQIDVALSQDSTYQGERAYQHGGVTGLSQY"}, "UPF1 [2]": {"target": "T1, UPF1 (Homo sapiens, UniProt Q92900-2 115-914)", "T1 sequence": "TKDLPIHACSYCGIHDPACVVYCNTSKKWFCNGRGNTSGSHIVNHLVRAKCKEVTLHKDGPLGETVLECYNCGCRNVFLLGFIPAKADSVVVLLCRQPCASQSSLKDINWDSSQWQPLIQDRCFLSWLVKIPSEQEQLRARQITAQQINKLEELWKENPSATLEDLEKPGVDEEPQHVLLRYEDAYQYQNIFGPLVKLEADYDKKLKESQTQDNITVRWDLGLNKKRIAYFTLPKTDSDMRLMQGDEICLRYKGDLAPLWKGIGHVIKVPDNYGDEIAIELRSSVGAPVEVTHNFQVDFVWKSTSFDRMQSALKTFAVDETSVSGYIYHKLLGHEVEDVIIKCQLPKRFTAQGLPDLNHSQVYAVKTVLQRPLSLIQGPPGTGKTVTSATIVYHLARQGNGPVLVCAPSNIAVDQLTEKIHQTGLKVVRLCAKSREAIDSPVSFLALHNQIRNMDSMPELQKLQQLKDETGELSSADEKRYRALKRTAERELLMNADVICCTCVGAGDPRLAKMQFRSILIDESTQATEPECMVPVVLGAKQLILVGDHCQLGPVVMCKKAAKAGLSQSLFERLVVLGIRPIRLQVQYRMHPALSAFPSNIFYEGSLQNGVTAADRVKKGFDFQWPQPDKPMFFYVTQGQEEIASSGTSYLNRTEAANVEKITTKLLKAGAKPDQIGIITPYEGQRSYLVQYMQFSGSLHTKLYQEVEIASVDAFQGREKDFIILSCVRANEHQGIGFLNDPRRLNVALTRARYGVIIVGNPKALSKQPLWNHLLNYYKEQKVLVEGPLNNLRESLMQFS"}, "Flag-MOV10hel": {"target": "T2, Flag-MOV10hel (human, UniProt Q9HCE1 289-1001)", "T2 construct": "MOV10, human, helicase core, residues 289-1001; also called helicase core of MOV10; source: HEK293, transfected, immunopurified on anti-Flag M2 agarose", "T2 sequence (looked up)": "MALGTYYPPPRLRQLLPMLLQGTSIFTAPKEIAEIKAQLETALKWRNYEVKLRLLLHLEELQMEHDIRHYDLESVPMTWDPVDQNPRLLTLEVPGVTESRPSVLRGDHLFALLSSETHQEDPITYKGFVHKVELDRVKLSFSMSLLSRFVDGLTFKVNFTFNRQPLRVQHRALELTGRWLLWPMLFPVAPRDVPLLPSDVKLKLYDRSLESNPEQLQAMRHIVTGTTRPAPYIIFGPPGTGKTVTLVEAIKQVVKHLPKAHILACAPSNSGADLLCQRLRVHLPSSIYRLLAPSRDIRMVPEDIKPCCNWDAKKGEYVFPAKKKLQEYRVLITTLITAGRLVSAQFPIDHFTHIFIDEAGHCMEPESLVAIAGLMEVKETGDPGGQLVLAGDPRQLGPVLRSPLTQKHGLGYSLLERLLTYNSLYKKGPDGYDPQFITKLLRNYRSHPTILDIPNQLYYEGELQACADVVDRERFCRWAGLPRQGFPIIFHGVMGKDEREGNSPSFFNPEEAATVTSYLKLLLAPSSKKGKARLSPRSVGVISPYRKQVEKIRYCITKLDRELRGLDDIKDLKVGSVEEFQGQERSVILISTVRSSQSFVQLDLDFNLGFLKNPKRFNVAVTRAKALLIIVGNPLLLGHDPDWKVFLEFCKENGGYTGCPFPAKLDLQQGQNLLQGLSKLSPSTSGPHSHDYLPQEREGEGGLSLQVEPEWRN", "experiment": "co-IP; as a2, but cell lysates treated with RNase A (60 ug/uL, 10 min, 25 C); SDS-PAGE, Coomassie, densitometry of the UPF2 band", "settings": "both partners purified"}, "UPF1 [3]": {"target": "T1, UPF1", "experiment": "fluorescence anisotropy; no nucleotide; affinity comparable to P1; Kd only in figure; 20 mM Hepes pH 7.5, 100 mM NaCl, 1 mM MgCl2, 100 ug/ml BSA; 5 nM RNA; 30 min room temperature, read at 25 C", "settings": "protein: recombinant; tags: 6xHis, His-Trx or His-GST fusion in E. coli; label: 5' 6-FAM; single strand"}, "[4]": {"target": "T3, MOV10NTD-UPF1hel (Chimera 3) (Homo sapiens, UniProt Q9HCE1 1-264+=GSAGAAGSGA+Q92900-2:295-914, internal_change)", "T3 sequence": "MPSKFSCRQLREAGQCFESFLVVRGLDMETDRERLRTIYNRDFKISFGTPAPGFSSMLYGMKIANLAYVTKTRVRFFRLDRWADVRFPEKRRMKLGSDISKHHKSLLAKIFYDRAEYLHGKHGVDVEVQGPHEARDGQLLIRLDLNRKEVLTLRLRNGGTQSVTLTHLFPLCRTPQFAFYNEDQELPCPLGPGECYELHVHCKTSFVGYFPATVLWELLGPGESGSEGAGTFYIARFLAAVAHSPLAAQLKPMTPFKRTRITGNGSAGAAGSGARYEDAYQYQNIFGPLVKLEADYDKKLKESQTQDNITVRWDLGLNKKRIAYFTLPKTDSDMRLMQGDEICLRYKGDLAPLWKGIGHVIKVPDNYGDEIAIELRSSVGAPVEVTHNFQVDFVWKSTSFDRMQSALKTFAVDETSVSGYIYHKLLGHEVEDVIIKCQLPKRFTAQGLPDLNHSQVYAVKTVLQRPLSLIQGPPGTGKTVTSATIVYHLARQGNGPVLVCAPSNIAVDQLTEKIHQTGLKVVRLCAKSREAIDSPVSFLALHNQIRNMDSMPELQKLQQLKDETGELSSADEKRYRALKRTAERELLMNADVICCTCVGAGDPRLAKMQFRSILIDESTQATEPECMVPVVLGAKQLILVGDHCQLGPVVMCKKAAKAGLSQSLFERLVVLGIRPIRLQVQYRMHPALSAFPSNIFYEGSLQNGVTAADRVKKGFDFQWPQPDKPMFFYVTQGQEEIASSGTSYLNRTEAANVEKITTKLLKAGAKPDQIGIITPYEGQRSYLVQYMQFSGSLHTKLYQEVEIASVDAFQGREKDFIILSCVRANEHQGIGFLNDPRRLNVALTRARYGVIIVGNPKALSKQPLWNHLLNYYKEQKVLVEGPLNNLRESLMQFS", "experiment": "fluorescence anisotropy; no nucleotide; 1 mM Mg2+; 20 mM Hepes pH 7.5, 100 mM NaCl, 1 mM MgCl2, 100 ug/ml BSA; 5 nM RNA; 30 min room temperature, read at 25 C", "settings": "protein: recombinant; tags: 6xHis, His-Trx or His-GST fusion in E. coli; label: 5' 6-FAM; single strand"}}}
{"molecule": "UPF2s (domain or fragment)", "values": [{"measurement": "RNA-dependent ATPase activity of MOV10NTD-UPF1hel upon addition of UPF2 (1.5-fold excess), against the chimera alone", "setting": "[1]", "result": 1.1, "unit": "fold"}, {"measurement": "nucleic acid unwinding activity of MOV10NTD-UPF1hel (300 nM) upon addition of UPF2 (600 nM), against the chimera alone", "setting": "[1]", "result": 1.25, "unit": "fold"}, {"measurement": "RNA-dependent ATPase activity of UPF1 upon addition of UPF2 (1.5-fold excess), against UPF1 alone", "setting": "UPF1 [2]", "result": 2.4, "unit": "fold"}]}
{"molecule": "B1", "values": [{"measurement": "fold less UPF2 coprecipitated than with Flag-MOV10fl and Flag-MOV10NTD", "setting": "Flag-MOV10hel", "result": "~4", "unit": "fold less"}]}
{"molecule": "UUUUUUUUUUUU (ssRNA)", "note": "[U12 RNA]", "values": [{"measurement": "binding result", "setting": "UPF1 [3]", "result": "binds"}, {"measurement": "Kd", "setting": "[4]", "result": 36, "unit": "nM"}]}
